Source: patent US20230039401A1, “COMPOSITIONS AND METHODS FOR TREATING NRP2-ASSOCIATED DISEASES” (aTyr Pharma, Inc., priority 2018, published 2023)
Ends that are not written are not given here.

Key:
[1] = tested on: murine model of sclerodermatous chronic graft vs. host disease (scl cGvHD); assay: Murine model of sclerodermatous chronic graft vs. host disease; assay type: in vivo, mouse; conditions: Fc-HRS(2-60) 0.4 mg/kg weekly IV, nintedanib daily oral, termination 8 weeks
Description: This study was designed to investigate the in vivo potential of test compounds in a murine model of sclerodermatous chronic graft vs. host disease (scl cGvHD). A H-2^d minor histocompatibility antigen-mismatched model was employed. The model was prepared by allogenic transplantation of bone marrow cells and splenocytes of male donor B10.D2 mice into 8 week old female Balb/c mice which had been subject to whole body irradiation with 700 cGy 6 hours prior to transplantation.
Treatment Regimen. Fifty-six (56) Balb/c mice, (Janvier, Le Genest St. Isle, France, female, 8 weeks) were used as recipients in this study while B10.D2 mice (Jackson Laboratory, Bar Harbor, Me., USA, male) were euthanized to provide donor cells for allogenic transplantation. The animals were assigned to study groups of 8 mice, and housed in specific pathogen-free conditions with sterile food and water. In brief, animals received weekly intravenous injections of the Vehicle of Fc-HRS(2-60) (20 mM Histidine/125 mM NaCl/10 mM Methionine/3% Sucrose/0.02% PS20, pH 6.9) beginning on Day 7 post transplantation (groups 2 and 3) or Fc-HRS(2-60) (0.4 mg/kg) beginning on Day 7 (group 4) or Day 21 (group 6) post-transplantation. […] Tissues were examined histologically using common staining techniques and tissue homogenates were analyzed for hydroxyproline content as an index of collagen content. […]

[2] = target: T1, FCGR1A (Homo sapiens, UniProt P12314); assay: Retrogenix cell microarray screen, FCGR1A; assay type: binding; conditions: sequential staining method; 20 μg/ml test protein; expressed in HEK293 cells
T1 construct: host or cells: HEK293
Description: (§1) To identify potential interacting partners of HRS, and related HRS polypeptides, the Retrogenix cell microarray screening technology (Retrogenix Ltd., High Peak Rd, United Kingdom) was used to evaluate binding of a HRS-Fc fusion protein construct ([Fc-HRS(2-60)] to a library of approximately 4500 membrane bound human proteins individually expressed in HEK293 cells.
(§2) In brief, HEK293 cells were plated onto glass cover slides which have been pre-treated by the application of discrete expression vectors to enable reverse transfection and expression of each of the 4500 membrane proteins, to create a cell microarray. Transfection efficiencies were assessed via ZsGreen1 expression and exceeded the minimum threshold for all of the library members screened.
(§3) Use of a smaller HRS fragment with a Fc tag provided for high sensitivity detection via the use of an AlexaFluor647 labeled anti-human IgG Fc antibody (AF647) as the detection reagent, and readily available controls to confirm specificity. The detection antibody was used at screening concentrations of 2, 5, and 20 μg/ml, as more fully described below. […]
(§4) Primary hits (duplicate spots) were identified by analyzing fluorescence intensity in the AlexaFluor 647 and ZsGreen1 emission channels using the ImageQuant system, following standard fluorescent methodology. […]

[3] = target: T2, SLC13A3 (Homo sapiens, UniProt Q8WWT9); assay: Retrogenix cell microarray screen, SLC13A3; assay type: binding; conditions: 20 μg/ml test protein; for Sequential incubation confirmatory screening result, SLC13A3: sequential staining method, expressed in HEK293 cells
T2 construct: host or cells: HEK293
T2 sequence (Q8WWT9 1-602): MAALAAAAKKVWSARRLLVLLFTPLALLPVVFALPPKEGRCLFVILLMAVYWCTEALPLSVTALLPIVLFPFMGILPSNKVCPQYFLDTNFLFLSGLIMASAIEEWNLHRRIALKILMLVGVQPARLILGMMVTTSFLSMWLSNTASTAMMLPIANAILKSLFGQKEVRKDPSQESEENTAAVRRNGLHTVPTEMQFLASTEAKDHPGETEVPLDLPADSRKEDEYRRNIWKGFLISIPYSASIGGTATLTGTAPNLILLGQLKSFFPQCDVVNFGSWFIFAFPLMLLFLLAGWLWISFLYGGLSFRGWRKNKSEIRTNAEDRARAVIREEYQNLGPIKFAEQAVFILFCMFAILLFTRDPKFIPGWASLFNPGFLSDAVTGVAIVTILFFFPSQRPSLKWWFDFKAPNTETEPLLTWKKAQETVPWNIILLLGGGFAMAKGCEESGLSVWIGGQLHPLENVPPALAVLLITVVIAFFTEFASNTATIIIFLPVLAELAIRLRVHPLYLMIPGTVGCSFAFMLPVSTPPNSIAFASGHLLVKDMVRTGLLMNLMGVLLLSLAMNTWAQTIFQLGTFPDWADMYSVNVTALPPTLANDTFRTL
Description: as §1, §2
Use of a smaller HRS fragment with a Fc tag provided for high sensitivity detection via the use of an AlexaFluor647 labeled anti-human IgG Fc antibody (AF647) as the detection reagent, and readily available controls to confirm specificity. The detection antibody was used at screening concentrations of 2, 5, and 20 μg/ml, as more fully described below.
Test Protein was screened at a concentration of 20 μg/ml using two different screening formats; either a sequential staining method, or a pre-incubation staining method. Sequential staining involved, in brief, the sequential addition to the test cells, of the test protein and detection reagents, while the pre-incubation staining method involved the pre-incubation of the test protein with the detection reagents (2:1 molar ratio of test protein to detection antibody) to pre-form higher avidity complexes prior to the addition to the test cells.
as §4

[4] = target: T3, IGHG3 (Homo sapiens, UniProt P01860); assay: Retrogenix cell microarray screen, IGHG3; assay type: binding; conditions: sequential staining method; 20 μg/ml test protein; expressed in HEK293 cells
T3 construct: host or cells: HEK293
Description: as §1, §2, §3, §4

[5] = target: T4, FCGR2A (Homo sapiens, UniProt P12318); assay: Retrogenix cell microarray screen, FCGR2A; assay type: binding; conditions: sequential staining method; 20 μg/ml test protein; expressed in HEK293 cells
T4 construct: host or cells: HEK293
T4 sequence (P12318 34-317): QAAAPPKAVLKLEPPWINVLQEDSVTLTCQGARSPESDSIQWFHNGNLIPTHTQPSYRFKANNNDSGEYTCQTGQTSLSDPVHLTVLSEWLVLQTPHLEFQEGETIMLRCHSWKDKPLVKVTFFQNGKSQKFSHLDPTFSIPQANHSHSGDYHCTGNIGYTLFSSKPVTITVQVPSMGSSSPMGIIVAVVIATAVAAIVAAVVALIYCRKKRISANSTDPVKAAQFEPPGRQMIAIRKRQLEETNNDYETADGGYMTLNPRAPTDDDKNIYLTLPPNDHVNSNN
Description: as §1, §2, §3, §4

[6] = target: T5, CD86 (Homo sapiens, UniProt P42081); assay: Retrogenix cell microarray screen, CD86; assay type: binding; conditions: 20 μg/ml test protein
T5 construct: host or cells: HEK293
T5 sequence (P42081 24-329): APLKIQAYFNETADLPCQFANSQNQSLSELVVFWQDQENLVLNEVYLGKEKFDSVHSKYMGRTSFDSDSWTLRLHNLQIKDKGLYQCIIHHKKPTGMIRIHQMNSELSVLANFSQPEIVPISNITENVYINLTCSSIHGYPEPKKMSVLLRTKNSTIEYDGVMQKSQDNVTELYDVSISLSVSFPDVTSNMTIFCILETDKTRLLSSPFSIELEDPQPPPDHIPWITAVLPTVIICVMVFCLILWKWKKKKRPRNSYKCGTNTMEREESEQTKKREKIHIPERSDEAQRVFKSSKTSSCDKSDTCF
Description: as §1, §2, §3, §4

[7] = target: T6, NRP2 (Homo sapiens, UniProt O60462); assay: SPR protein-protein interaction, human NRP2 over immobilized protein; assay type: binding; conditions: NRP2 flowed as analyte (50 nM or 20 nM); running buffer with 5 mM CaCl2
T6 construct: Fc (C); purchased R&D Systems 2215-N2
Description: Protein-Protein Interaction studies. […] SPR experiments were conducted on a Bio-Rad ProteOn XPR36 Protein Interaction Array instrument. Proteins were immobilized on different channels of ProteOn GLC sensor chips through amine coupling. Analyte proteins were flowed over the immobilized proteins. The sensor chip surface was regenerated between each analyte run to remove interacting proteins. Data was double referenced against an interspot (untreated chip surface) and a blank surface (activated and deactivated for amine coupling).
Studies were performed to confirm the binding specificity of Neuropilin 2 (NRP2) to Fc-HRS(2-60) using orthologous methods to those used in the large scale Retrogenix screening (Example 1). In a series of experiments, Fc-HRS(2-60) and related proteins were immobilized on SPR chips, and NRP2 and related proteins were flowed as analytes. Upon confirmation of the NRP2:Fc-HRS(2-60) interaction, the dependence on divalent cations was tested as NRP2 is known to have Ca^2+ binding sites. The effects of previously characterized NRP2 ligands on the NRP2: Fc-HRS(2-60) interaction was also tested to determine if these known ligands have competitive effects on the Fc-HRS(2-60) interaction.

[8] = target: T7, MS4A1 (Homo sapiens, UniProt P11836); assay: Retrogenix cell microarray screen, MS4A1; assay type: binding; conditions: 20 μg/ml test protein
T7 construct: host or cells: HEK293
T7 sequence (P11836 1-297): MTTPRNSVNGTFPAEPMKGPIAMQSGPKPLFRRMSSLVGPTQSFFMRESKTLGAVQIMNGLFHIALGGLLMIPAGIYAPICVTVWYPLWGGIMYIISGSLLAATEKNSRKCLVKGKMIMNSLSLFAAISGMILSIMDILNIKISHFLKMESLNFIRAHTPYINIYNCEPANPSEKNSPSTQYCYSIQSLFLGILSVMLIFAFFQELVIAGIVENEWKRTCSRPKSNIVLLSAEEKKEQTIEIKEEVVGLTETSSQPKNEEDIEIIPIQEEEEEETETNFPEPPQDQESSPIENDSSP
Description: as §1, §2, §3, §4

[9] = pre-incubation staining method (2:1 test protein to detection antibody), HEK293 cells
[10] = sequential staining method, expressed in HEK293 cells

T6 sequence (O60462 21-931): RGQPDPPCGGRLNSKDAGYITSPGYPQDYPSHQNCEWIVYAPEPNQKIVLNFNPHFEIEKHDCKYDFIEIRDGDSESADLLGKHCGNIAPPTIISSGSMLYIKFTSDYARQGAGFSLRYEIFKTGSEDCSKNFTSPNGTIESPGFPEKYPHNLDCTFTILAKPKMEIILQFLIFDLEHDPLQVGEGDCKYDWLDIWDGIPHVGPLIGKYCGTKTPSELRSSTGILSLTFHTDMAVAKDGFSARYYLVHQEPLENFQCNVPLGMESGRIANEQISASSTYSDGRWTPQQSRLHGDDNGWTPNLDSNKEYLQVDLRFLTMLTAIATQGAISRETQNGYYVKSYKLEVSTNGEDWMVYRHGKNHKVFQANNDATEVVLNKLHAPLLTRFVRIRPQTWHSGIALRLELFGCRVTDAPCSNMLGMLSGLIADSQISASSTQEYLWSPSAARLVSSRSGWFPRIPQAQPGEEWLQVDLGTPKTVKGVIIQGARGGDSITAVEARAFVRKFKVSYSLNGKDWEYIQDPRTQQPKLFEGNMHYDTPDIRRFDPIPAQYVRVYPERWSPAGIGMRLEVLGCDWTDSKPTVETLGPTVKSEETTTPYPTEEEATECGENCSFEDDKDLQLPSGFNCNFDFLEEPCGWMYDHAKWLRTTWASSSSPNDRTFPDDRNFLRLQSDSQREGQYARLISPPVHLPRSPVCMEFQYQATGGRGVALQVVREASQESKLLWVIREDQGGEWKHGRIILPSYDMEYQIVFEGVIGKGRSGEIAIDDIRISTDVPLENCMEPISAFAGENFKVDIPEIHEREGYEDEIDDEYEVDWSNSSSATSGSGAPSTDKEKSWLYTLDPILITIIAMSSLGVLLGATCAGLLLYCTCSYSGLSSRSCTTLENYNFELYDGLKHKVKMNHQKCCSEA
T3 sequence (P01860 whole entry): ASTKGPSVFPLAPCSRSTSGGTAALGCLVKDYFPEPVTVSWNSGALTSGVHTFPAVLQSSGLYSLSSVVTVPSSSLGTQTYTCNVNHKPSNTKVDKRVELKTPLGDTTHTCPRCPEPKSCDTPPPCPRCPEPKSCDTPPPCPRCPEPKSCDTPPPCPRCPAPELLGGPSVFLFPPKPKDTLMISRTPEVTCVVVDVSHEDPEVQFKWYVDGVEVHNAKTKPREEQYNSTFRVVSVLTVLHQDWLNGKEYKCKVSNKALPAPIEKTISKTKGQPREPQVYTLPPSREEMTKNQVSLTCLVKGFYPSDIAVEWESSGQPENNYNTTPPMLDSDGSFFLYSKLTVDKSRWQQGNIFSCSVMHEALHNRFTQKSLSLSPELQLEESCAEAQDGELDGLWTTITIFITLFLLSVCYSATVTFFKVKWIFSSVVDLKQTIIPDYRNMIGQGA
T1 sequence (P12314 16-374): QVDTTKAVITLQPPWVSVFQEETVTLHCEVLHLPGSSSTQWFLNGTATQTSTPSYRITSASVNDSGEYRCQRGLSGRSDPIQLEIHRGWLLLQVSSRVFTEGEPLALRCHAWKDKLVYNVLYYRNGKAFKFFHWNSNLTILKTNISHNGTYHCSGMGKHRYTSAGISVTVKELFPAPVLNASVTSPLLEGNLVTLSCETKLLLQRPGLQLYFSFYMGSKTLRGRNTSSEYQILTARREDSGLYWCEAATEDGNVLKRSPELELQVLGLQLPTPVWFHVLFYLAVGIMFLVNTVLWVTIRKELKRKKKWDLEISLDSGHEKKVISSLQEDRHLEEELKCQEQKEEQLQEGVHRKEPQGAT

Compound	Sequential incubation confirmatory screening result, FCGR1A [2]	Sequential incubation confirmatory screening result, SLC13A3 [3]	Sequential incubation confirmatory screening result, IGHG3 [4]	Sequential incubation confirmatory screening result, FCGR2A [5]	binding of human NRP2 to immobilized protein (SPR) [7]	other results
COC(=O)c1ccc2c(c1)NC(=O)/C2=C(\Nc1ccc(N(C)C(=O)CN2CCN(C)CC2)cc1)c1ccccc1 [nintedanib]						measures of fibrosis in skin and lung ([1]; intervention beginning 7 days post-transplantation): significantly ameliorated all measures of fibrosis; fibrotic endpoints in skin and lung ([1]; intervention beginning 21 days post-transplantation): significantly improved most endpoints measured
CTLA4-FC	NON SPEC	NON SPEC	STRONG	NON SPEC		Pre-incubation confirmatory screening, Binding scoring, CD86 [6, 9]: STRONG; Sequential incubation confirmatory screening result, CD86 [6, 10]: STRONG
GARS Fc-WHEP: Fc domain fused to the WHEP domain of GARS (VLAPLRLAVRQQGDLVRKLKEDKAPQVDVDKAVAELKARKRVLEAKELALQPKDDIV; not fully specified (N-terminus); also: fused to dimerising Fc domain (not included))					does not bind	
MARS Fc-WHEP: Fc domain fused to the WHEP domain of MARS (QIQALMDEVTKQGNIVRELKAQKADKNEVAAEVAKLLDLKKQLAVAEGKPPEAPKGK; not fully specified (N-terminus); also: fused to dimerising Fc domain (not included))					does not bind	
RITUXIMAB	NON SPEC	INVERSE	STRONG	NON SPEC		Pre-incubation confirmatory screening, Binding scoring, SLC13A3 [3, 9]: INVERSE; Pre-incubation confirmatory screening, Binding scoring, MS4A1 [8, 9]: STRONG; Sequential incubation confirmatory screening result, MS4A1 [8, 10]: STRONG
WARS WHEP: WHEP domain of WARS with a V5/His tag (SLLELFNSIATQGELVRSLKAGNASKDEIDSAVKMLVSLKMSYKAAAGEDYKADCPP; also: V5/His tag (not included))					does not bind	
